“And” between values parts separate entries of the source, which are not always exact repeats. Equal entries are not always repeated. Non-standard residues stand in square brackets, D forms with d. 2Nal = N[C@@H](Cc1ccc2ccccc2c1)C(=O)O; Sar = CNCC(=O)O
B1: …(N-Me-G)ADTD (peptide)
peptide: Ac-EDDSDVWWG[Sar]ADTD-NH2
SMILES: CC(=O)N[C@@H](CCC(=O)O)C(=O)N[C@@H](CC(=O)O)C(=O)N[C@@H](CC(=O)O)C(=O)N[C@@H](CO)C(=O)N[C@@H](CC(=O)O)C(=O)N[C@H](C(=O)N[C@@H](Cc1c[nH]c2ccccc12)C(=O)N[C@@H](Cc1c[nH]c2ccccc12)C(=O)NCC(=O)N(C)CC(=O)N[C@@H](C)C(=O)N[C@@H](CC(=O)O)C(=O)N[C@H](C(=O)N[C@@H](CC(=O)O)C(N)=O)[C@@H](C)O)C(C)C
B2: R4-20 (Ac-RRRREDDD(2Nala)…-NH2) (peptide)
peptide: Ac-RRRREDDD[2Nal]IDWYDSDDD-NH2
SMILES: CC[C@H](C)[C@H](NC(=O)[C@H](Cc1ccc2ccccc2c1)NC(=O)[C@H](CC(=O)O)NC(=O)[C@H](CC(=O)O)NC(=O)[C@H](CC(=O)O)NC(=O)[C@H](CCC(=O)O)NC(=O)[C@H](CCCNC(=N)N)NC(=O)[C@H](CCCNC(=N)N)NC(=O)[C@H](CCCNC(=N)N)NC(=O)[C@H](CCCNC(=N)N)NC(C)=O)C(=O)N[C@@H](CC(=O)O)C(=O)N[C@@H](Cc1c[nH]c2ccccc12)C(=O)N[C@@H](Cc1ccc(O)cc1)C(=O)N[C@@H](CC(=O)O)C(=O)N[C@@H](CO)C(=O)N[C@@H](CC(=O)O)C(=O)N[C@@H](CC(=O)O)C(=O)N[C@@H](CC(=O)O)C(N)=O

Assays:
[1] = molecular target: Sushi domains (SD1/2) protein of the GABAB1a (GB1a) subunit, recombinant; test: FP competition with AJAP-1probe
[2] = molecular target: Sushi domains (SD1/2) protein of the GABAB1a (GB1a) subunit, recombinant; test: FP competition
[3] = molecular target: Sushi domains (SD1/2) protein of the GABAB1a (GB1a) subunit, recombinant; test: FP competition; remark: listed apart in the source
[4] = molecular target: Sushi domains (SD1/2) protein of the GABAB1a (GB1a) subunit, recombinant; test: FP competition, N-methylation scan
[5] = molecular target: Sushi domains (SD1/2) protein of GABAB1a (GB1a); test: FP competition vs TAMRA AJAP-1probe
[6] = molecular target: Sushi domains (SD1/2) protein of the GABAB1a (GB1a) subunit, recombinant; test: FP inhibition, six-point, crude peptide of the solution array
[7] = molecular target: Sushi domains (SD1/2) protein of the GABAB1a (GB1a) subunit, recombinant; test: FP competition; remark: listed apart in the source
[8] = molecular target: Sushi domains (SD1/2) protein of the GABAB1a (GB1a) subunit, recombinant; test: FP inhibition
[9] = molecular target: Sushi domains (SD1/2) protein of the GABAB1a (GB1a) subunit, recombinant; test: FP competition; end of the range assigned from the Ki values of Table 2

Sequence of Sushi domains (SD1/2) protein of the GABAB1a (GB1a) subunit, recombinant (Q9Z0U4 29-158): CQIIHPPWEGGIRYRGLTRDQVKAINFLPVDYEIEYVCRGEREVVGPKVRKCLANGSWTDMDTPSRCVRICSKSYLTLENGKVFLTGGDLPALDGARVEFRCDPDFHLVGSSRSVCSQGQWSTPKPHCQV
Sequence of Sushi domains (SD1/2) protein of GABAB1a (GB1a) (Q9Z0U4 29-158): as above

Binder	Ki [1] [µM]	Ki [2]	also measured
Ac-TETEFIAWGPTGDED-NH2 [peptide 15 (Ac-…-NH2)]	0.023	0.026 µM	–
Ac-EEDDSDVWWGGADTDYAD-NH2 [Peptide 36 (Ac-…-NH2)]	0.244	0.244 µM and 0.233 µM	–
Ac-PWAIVWGPTVSRED-NH2 [PIANPWT (Ac-…-NH2)]	–	0.762 µM	Ki [3]: 0.476 µM
B1	–	0.161 µM	fold increased affinity against APPWT [4]: 3 fold; Ki [5]: 0.161 µM
Ac-EDDSWVWWGGADTD-NH2 [… (APPWT mutant D207W)]	–	0.1 µM	Ki [6]: 0.078 µM
Ac-EDDSDVWWYGADTD-NH2 [… (APPWT mutant G211Y)]	–	0.108 µM	Ki [6]: 0.167 µM
Ac-EDDSDVWWGGADTD-NH2 [APPWT (Ac-…-NH2)]	–	–	Ki [7]: 0.557 µM; Ki [6]: 0.635 µM
B2	–	0.012 µM	fold higher affinity than 4R-16 [8]: 2 fold
Ac-RRRRRRRREDDDWIDWYDSDDD-NH2 [R8-16 (Ac-…-NH2)]	–	0.107 µM	fold loss of affinity against the untagged peptide [9]: 12 to 33 fold
Ac-DDSDVWWGG-NH2	2.63	–	–
Ac-DDSDVWWGGADTDYADG-NH2	0.687	–	–
Ac-DSADAEEDDSDVWWG-NH2 [peptide 11 (…)]	5.03	–	–

— US20260193293A1, “PEPTIDES CAPABLE OF INHIBITING PROTEIN-PROTEIN INTERACTIONS AT GABAB1A SUBUNIT AND USES THEREOF” (UNIVERSITY OF COPENHAGEN, priority 2022, published 2026)
